For assay [1], the target named is T1, human TNFR2 extracellular domain with C-terminal 10×His tag (human, UniProt P20333 23-257).
T1 construct: also called huTNFR2-His; His-tag-huTNFR2
T1 sequence: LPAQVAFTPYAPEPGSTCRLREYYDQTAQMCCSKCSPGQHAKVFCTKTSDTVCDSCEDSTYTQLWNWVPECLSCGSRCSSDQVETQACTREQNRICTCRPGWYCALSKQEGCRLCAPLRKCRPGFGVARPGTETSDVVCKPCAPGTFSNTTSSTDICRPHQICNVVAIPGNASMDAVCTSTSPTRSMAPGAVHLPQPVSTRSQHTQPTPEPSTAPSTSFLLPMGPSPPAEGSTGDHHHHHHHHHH
Put plainly: BLI (Octet RED96), antibody captured on AHC biosensor, His-tagged TNFR2 in solution, 1:1 model. The protocol: The following kinetic assay was performed using anti-human IgG Fc capture (AHC) biosensors (ForteBio) in kinetics buffer (PBS, 0.1% Tween-20 and 1% bovine serum albumin): (a) antibody (2 μg/mL) for 300 sec, (b) baseline for 120 sec, (c) association with His-tag-huTNFR2 (2.5, 0.5 and 0 μg/mL) and His-tag-cynoTNFR2 (2.5, 0.5 and 0 μg/mL) for 420 sec and (d) dissociation for 1200 sec. Data fitting and analysis was performed with Octet data analysis software 8.0 (ForteBio) using a 1:1 binding model after Savitzky-Golay filtering.
(Biolayer interferometry detects binding as a change in optical thickness at a sensor tip.)

The target of assay [2] is T1, human TNFR2 extracellular domain with …. Put plainly: BLI (Octet RED96), antibody captured on AHC biosensor, His-tag-huTNFR2 in solution, 1:1 model. As for the experimental part:
The following kinetic assay was performed using anti-human IgG Fc capture (AHC) biosensors (ForteBio) in kinetics buffer (PBS, 0.1% Tween-20 and 1% bovine serum albumin): (a) antibody (2 μg/mL) for 300 sec, (b) baseline for 120 sec, (c) association with His-tag-huTNFR2 (2.5, 0.5 and 0 μg/mL) for 420 sec and (d) dissociation for 1200 sec. Data fitting and analysis was performed with Octet data analysis software 8.0 (ForteBio) using a 1:1 binding model after Savitzky-Golay filtering. The dissociation constant (Kd) was calculated as the ratio of Koff/Kon.

In assay [3] the target is T2, human TNFR2 expressed on cells (Expi293 cells stably expressing huTNFR2) (human, UniProt P20333 23-461).
T2 construct: whole, on cells; Also used here as the target of the Treg assay (native TNFR2 on human primary Treg cells); also called huTNFR2 expressed cells; Expi293-TNFR2 cells
T2 sequence (looked up): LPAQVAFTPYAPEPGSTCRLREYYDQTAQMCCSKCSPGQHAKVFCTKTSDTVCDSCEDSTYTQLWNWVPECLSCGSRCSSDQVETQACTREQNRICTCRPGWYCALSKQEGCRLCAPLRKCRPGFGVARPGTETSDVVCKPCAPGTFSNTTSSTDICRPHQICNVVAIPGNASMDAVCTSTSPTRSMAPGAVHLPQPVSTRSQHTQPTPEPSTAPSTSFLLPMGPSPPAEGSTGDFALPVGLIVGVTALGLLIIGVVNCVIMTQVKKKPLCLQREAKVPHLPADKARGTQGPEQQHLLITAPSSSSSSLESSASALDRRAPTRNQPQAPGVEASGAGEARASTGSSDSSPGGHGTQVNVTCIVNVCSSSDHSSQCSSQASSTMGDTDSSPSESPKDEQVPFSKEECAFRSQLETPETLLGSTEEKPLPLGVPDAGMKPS
The assay is described as follows: flow cytometry on Expi293 cells stably expressing huTNFR2, y axis TNFR2 binding (MFI). The protocol: The coding sequence of huTNFR2 (Uniprot, P20333) was cloned into a lentiviral vector and the virus was packaged according to the instruction of the virus packaging kit (Lenti-X™ Packaging Single Shots, Cat #631275, Takada). The Expi293 cells were transduced with the recombinant virus and selected by puromycin. The cell line stably expressing huTNFR2 was incubated with anti-TNFR2 antibodies in PBS with 0.5% BSA, 1 mM EDTA, and 0.1% sodium azide (FACS buffer) for 30 minutes at 4° C. The cells were washed, and then incubated with 10 nM phycoerythrin (PE) conjugated anti-Human Fe Ab (Biolegend, cat #409304) for 20 minutes at 4° C. Cells were washed and then […] by flow cytometry with Attune (ThermoFisher Scientific). Data were analyzed with FlowJo software. Antibody binding is represented as median fluorescence intensity (MFI).
FACS based binding and blocking assays of humanized antibodies were performed as described above.
For orientation: A flow cytometer gives signals particle by particle.

B1: 6F12 chimeric anti-TNFR2 antibody (antibody, V domains shown)
VH: QIQLVQSGPELKKPGETVKISCKTSGYTFTIYGMNWVKQAPGKGLKWMGWIHTYTGEPTYADDFKGRFVFSLETSDSTAYLQINNLKSEDMATYFCVRRERYGSFWGQGTLVTVSA
VL: DIVLTQSPASLAVSLGQRATISCTASQSVDYGGVSYMNWYQQKPGQPPKLLIYGASNQESGIPVRFSGSGSGTDFTLNIHPVEEEDAATYYCQQSNEDPPTFGAGTKLELK
notes: Chimeric: mouse variable domains with human constant regions, made as recombinant IgG1
In the case of B1, in assay [1], the Kd (as a rule, a measure of binding affinity in units of concentration) was determined as 3.77 nM; the koff (commonly the rate constant with which the complex falls apart) turned out to be 0.000886 s⁻¹; the kon (in general, the rate constant with which the complex forms) turned out to be 239000 M⁻¹ s⁻¹.

B2: SB1901-68 humanized anti-TNFR2 antibody (antibody, V domains shown)
VH: QVQLVQSGAEVKKPGASVKVSCKASGYTFTDDYIDWVRQATGQGLEWIGEIYPGSGNTYYNEKFKGRVTMTRDTSISTAYMELSSLRSEDTAVYYCARSQVYGKIAMDHWGQGTLVTVSS
VL: DIVMTQSPDSLAVSLGERATINCRASESVDNSGNSFMHWYQQKPGQPPKLLIYRASNLESGVPDRFSGSGSRTDFTLTISSLQAEDVAVYYCQQSKEDPYTFGQGTKVEIK
In assay [2], B2 gave a Kd of 1.95 nM, a koff of 0.000796 s⁻¹ and a kon of 408000 M⁻¹ s⁻¹.

B3: SB1901-78 (antibody, V domains shown)
VH: QVQLVQSGAEVKKPGASVKVSCKASGYTFTDDYIDWVRQATGQGLEWIGEIYPGSGNTYYNEKFKGRVTMTADKSISTAYMELSSLRSEDTAVYYCARSQVYGKIAMDHWGQGTLVTVSS
VL: DIVMTQSPDSLAVSLGERATINCRASESVDNSGNSFMHWYQQKPGQPPKLLIYRASNLESGVPDRFSGSGSRTDFTLTISSLQAEDVAVYYCQQSKEDPYTFGQGTKVEIK
notes: humanized version of 51B5; also called SB1901-78 humanized anti-TNFR2 antibody
Take B3: the EC50 (read off the curve) (as a rule, the concentration needed to bring the measured effect to its halfway point) in assay [3] is ~0.6 nM.

B4: SB1901-82 (antibody, V domains shown)
VH: QVQLVQSGAEVKKPGASVKVSCKASGYTFTDDYIDWVRQAPGQGLEWMGEIYPGSGNTYYNEKFKGRVTMTRDTSTSTVYMELSSLRSEDTAVYYCARSQVYGKIAMDHWGQGTLVTVSS
VL: DIVMTQSPDSLAVSLGERATINCRASESVDNSGNSFMHWYQQKPGQPPKLLIYRASNLESGVPDRFSGSGSRTDFTLTISSLQAEDVAVYYCQQSKEDPYTFGQGTKVEIK
notes: humanized version of 51B5; also called SB1901-82 humanized anti-TNFR2 antibody
Regarding B4, the “EC50 (read off the curve)” value in assay [3] was ~0.6 nM.

B5: SB1901-74 (antibody, V domains shown)
VH: QVQLVQSGAEVKKPGASVKVSCKASGYTFTDDYIDWVRQATGQGLEWIGEIYPGSGNTYYNEKFKGRVTMTRNTAISTAYMELSSLRSEDTAVYYCARSQVYGKIAMDHWGQGTLVTVSS
VL: DIVMTQSPDSLAVSLGERATINCRASESVDNSGNSFMHWYQQKPGQPPKLLIYRASNLESGVPDRFSGSGSRTDFTLTISSLQAEDVAVYYCQQSKEDPYTFGQGTKVEIK
notes: humanized version of 51B5; also called SB1901-74 humanized anti-TNFR2 antibody
With B5, in assay [3], the “EC50 (read off the curve)” value is ~0.6 nM.

B6: SB1901-69 humanized anti-TNFR2 antibody (antibody, V domains shown)
VH: QVQLVQSGAEVKKPGASVKVSCKASGYTFTDDYIDWVRQATGQGLEWMGEIYPGSGNTYYNEKFKGRVTMTRDKSISTAYMELSSLRSEDTAVYYCARSQVYGKIAMDHWGQGTLVTVSS
VL: DIVMTQSPDSLAVSLGERATINCRASESVDNSGNSFMHWYQQKPGQPPKLLIYRASNLESGVPDRFSGSGAGTDFTLTISSLQAEDVAVYYCQQSKEDPYTFGQGTKVEIK
In the case of B6, in assay [2], the Kd came to 1.25 nM, the koff is 0.000513 s⁻¹ and the kon turned out to be 410000 M⁻¹ s⁻¹.

B7: SB1901-80 humanized anti-TNFR2 antibody (antibody, V domains shown)
VH: QVQLVQSGAEVKKPGASVKVSCKASGYTFTDDYIDWVRQAPGQGLEWIGEIYPGSGNTYYNEKFKGRVTMTRDTSTSTVYMELSSLRSEDTAVYYCARSQVYGKIAMDHWGQGTLVTVSS
VL: DIVMTQSPDSLAVSLGERATINCRASESVDNSGNSFMHWYQQKPGQPPKLLIYRASNLESGVPDRFSGSGSRTDFTLTISSLQAEDVAVYYCQQSKEDPYTFGQGTKVEIK
In assay [2], B7 showed a Kd of 2.52 nM, a koff of 0.000937 s⁻¹ and a kon of 373000 M⁻¹ s⁻¹. In addition, in assay [3], the “EC50 (read off the curve)” value is ~0.6 nM.

Source of the values: patent US20250011448A1 (STAIDSON BIOPHARMA, published 2025).
